Changes are numbered by the printed parent chain. In names and notes the source's numbering stands.
B1: Drp1 (dynamin-related protein Drp1), wild type (natural protein, UniProt O00429-4 1-699, looked up)
chain: MEALIPVINKLQDVFNTVGADIIQLPQIVVVGTQSSGKSSVLESLVGRDLLPRGTGIVTRRPLILQLVHVSQEDKRKTTGEENGVEAEEWGKFLHTKNKLYTDFDEIRQEIENETERISGNNKGVSPEPIHLKIFSPNVVNLTLVDLPGMTKVPVGDQPKDIELQIRELILRFISNPNSIILAVTAANTDMATSEALKISREVDPDGRRTLAVITKLDLMDAGTDAMDVLMGRVIPVKLGIIGVVNRSQLDINNKKSVTDSIRDEYAFLQKKYPSLANRNGTKYLARTLNRLLMHHIRDCLPELKTRINVLAAQYQSLLNSYGEPVDDKSATLLQLITKFATEYCNTIEGTAKYIETSELCGGARICYIFHETFGRTLESVDPLGGLNTIDILTAIRNATGPRPALFVPEVSFELLVKRQIKRLEEPSLRCVELVHEEMQRIIQHCSNYSTQELLRFPKLHDAIVEVVTCLLRKRLPVTNEMVHNLVAIELAYINTKHPDFADACGLMNNNIEEQRRNRLARELPSAVSRDKVASGGGGVGDGVQEPTTGNWRGMLKTSKAEELLAEEKSKPIPIMPASPQKGHAVNLLDVPVPVARKLSAREQRDCEVIERLIKSYFLIVRKNIQDSVPKAVMHFLVNHVKDTLQSELVGQLYKSSLLDDLLTESEDMAQRRKEAADMLKALQGASQIIAEIRETHLW
notes: Drp1, GenBank NM_005690; also called wild-type Drp1; source: E. coli Rosseta (DE3), purified (Ni-NTA, anion exchange, size-exclusion chromatography)
B2: Drp1 K38A (natural protein, UniProt O00429-4 1-699, looked up)
chain: B1 chain with K38A
notes: Drp1, GenBank NM_005690; also called K38A mutant of Drp1; dominant-negative GTPase mutation K38A; source: E. coli Rosseta (DE3), purified (Ni-NTA, anion exchange, size-exclusion chromatography)
B3: Drp1 S579D (natural protein, UniProt O00429-4 1-699, looked up)
chain: B1 chain with S579D
notes: Drp1, GenBank NM_005690; S579 is S616 in Drp1 isoform 1 (printed); also called phosphorylation site mutant (related to S616 in Drp1 isoform 1); source: E. coli Rosseta (DE3), purified (Ni-NTA, anion exchange, size-exclusion chromatography)
B4: Drp1 S600D (natural protein, UniProt O00429-4 1-699, looked up)
chain: B1 chain with S600D
notes: Drp1, GenBank NM_005690; S600 is S637 in Drp1 isoform 1 (printed); also called phosphorylation site mutant (related to S637 in Drp1 isoform 1); source: E. coli Rosseta (DE3), purified (Ni-NTA, anion exchange, size-exclusion chromatography)
B5: GST-MiD51^133-463, wild type (domain or fragment, human, UniProt Q9NQG6-1 133-463, looked up)
chain: MSLQEKLLTYYRNRAAIPAGEQARAKQAAVDICAELRSFLRAKLPDMPLRDMYLSGSLYDDLQVVTADHIQLIVPLVLEQNLWSCIPGEDTIMNVPGFFLVRRENPEYFPRGSSYWDRCVVGGYLSPKTVADTFEKVVAGSINWPAIGSLLDYVIRPAPPPEALTLEVQYERDKHLFIDFLPSVTLGDTVLVAKPHRLAQYDNLWRLSLRPAETARLRALDQADSGCRSLCLKILKAICKSTPALGHLTASQLTNVILHLAQEEADWSPDMLADRFLQALRGLISYLEAGVLPSALNPKVNLFAELTPEEIDELGYTLYCSLSEPEVLLQT
notes: also called cytosolic domain of MiD51; source: E. coli BL21 (DE3), purified (Glutathione Sepharose, eluted with reduced glutathione)
B6: MiD51^133-463, wild type (protein of the dimerization assays) (domain or fragment, human, UniProt Q9NQG6-1 133-463, looked up)
chain: B5 chain
notes: the His tag is called N-terminal in the methods and C-terminal in the results; source: E. coli BL21 (DE3), purified
B7: MiD51^133-463 C165S (domain or fragment, human, UniProt Q9NQG6-1 133-463, looked up)
chain: B5 chain with C33S
notes: source: E. coli BL21 (DE3), purified
B8: MiD51^133-463 supposed dimer surface mutant (SDM, R169A/R182A/D183A/Q212A/N213A) (domain or fragment, human, UniProt Q9NQG6-1 133-463, looked up)
chain: B5 chain with R37A, R50A, D51A, Q80A, N81A
notes: as for B7
B9: MiD51^133-463 nucleotide binding site mutant (NBM, H201D/R342E/K368E) (domain or fragment, human, UniProt Q9NQG6-1 133-463, looked up)
chain: B5 chain with H69D, R210E, K236E
notes: as for B7

What was measured:
[1] = target: the molecule itself; assay: SEC; Superdex 200 PC 3.2/20; purified Drp1 and Drp1 mutants
[2] = target: T1, Drp1 A395D/AAAA (UniProt O00429-4 1-699, A395D | 401GPRP404→AAAA); assay: pull-down; GST-fused MiD51^133-463 or mutants on Glutathione Sepharose 4B, equal molar Drp1, 3 h at 4°C; 20 mM HEPES pH 7.5, 150 mM NaCl, 1% Triton X-100, 1 mM MgCl2; SDS-PAGE, Coomassie staining; no nucleotide; conditions: both partners purified
T1 construct: Drp1, GenBank NM_005690; source: E. coli Rosseta (DE3), purified (Ni-NTA, anion exchange, size-exclusion chromatography)

[3] = target: T2, Drp1 A395D (UniProt O00429-4 1-699, A395D); assay: as above; conditions: both partners purified
T2 construct: Drp1, GenBank NM_005690; source: E. coli Rosseta (DE3), purified (Ni-NTA, anion exchange, size-exclusion chromatography)

[4] = target: B4; assay: as above; conditions: both partners purified
[5] = target: B2; assay: as above; conditions: both partners purified
[6] = target: T3, Drp1 G350D (UniProt O00429-4 1-699, G350D); assay: as above; conditions: both partners purified
T3 construct: Drp1, GenBank NM_005690; source: E. coli Rosseta (DE3), purified (Ni-NTA, anion exchange, size-exclusion chromatography)

[7] = target: B3; assay: as above; conditions: both partners purified
[8] = target: T4, Drp1 G350D/A395D (UniProt O00429-4 1-699, G350D | A395D); assay: as above; conditions: both partners purified
T4 construct: Drp1, GenBank NM_005690; source: E. coli Rosseta (DE3), purified (Ni-NTA, anion exchange, size-exclusion chromatography)

[9] = target: T5, Drp1 G350D/AAAA (UniProt O00429-4 1-699, G350D | 401GPRP404→AAAA); assay: as above; conditions: both partners purified
T5 construct: Drp1, GenBank NM_005690; source: E. coli Rosseta (DE3), purified (Ni-NTA, anion exchange, size-exclusion chromatography)

[10] = target: B1; assay: pull-down; GST-MiD51^133-463 on Glutathione Sepharose; MiD51 and Drp1 mixed first, then no nucleotide (apo) or 1 mM GTP, GMP-PNP, GDP-AlFx or GDP in assay and wash buffer; 20 mM HEPES pH 7.5, 150 mM NaCl, 1% Triton X-100, 1 mM MgCl2; Coomassie staining; conditions: both partners purified
[11] = target: T6, Drp1 AAAA mutant (401GPRP404→AAAA) (UniProt O00429-4 1-699, 401GPRP404→AAAA); assay: as above; conditions: both partners purified
T6 construct: Drp1, GenBank NM_005690; source: E. coli Rosseta (DE3), purified (Ni-NTA, anion exchange, size-exclusion chromatography)

[12] = target: the molecule itself; assay: non-reducing SDS-PAGE; purified MiD51^133-463 in the air; time course, dimer quantified every twenty-four hours; wild type and mutants compared

Binder: B1
- binding result [1]: binds

Binder: B2
- binding result [1]: binds

Binder: B3
- binding result [1]: binds

Binder: B4
- binding result [1]: binds

Binder: B5
- binding result [2]: binds
- binding result [3]: binds
- binding result [4]: binds
- binding result [5]: binds
- binding result [6]: binds
- binding result [7]: binds
- binding result [8]: binds
- binding result [9]: binds
- binding result [10]: binds
- binding result [11]: binds

Binder: B6
- stoichiometry N [12]: 2

Binder: B7
- binding result [12]: binds

Binder: B8
- binding result [12]: binds

Binder: B9
- binding result [12]: binds

From publication PMC6355003, “New interfaces on MiD51 for Drp1 recruitment and regulation” (PLoS ONE, 2019)
